{
  "source": "patent US20120309051A1",
  "about": "(UNIVERSITY OF MEDICINE AND DENTISTRY OF NEW JERSEY, published 2012)",
  "target": "T1, GFP-MG53 (GFP fused to the amino-terminus of full-length mouse MG53) (mouse, UniProt Q1XH17 1-477)",
  "T1 sequence": "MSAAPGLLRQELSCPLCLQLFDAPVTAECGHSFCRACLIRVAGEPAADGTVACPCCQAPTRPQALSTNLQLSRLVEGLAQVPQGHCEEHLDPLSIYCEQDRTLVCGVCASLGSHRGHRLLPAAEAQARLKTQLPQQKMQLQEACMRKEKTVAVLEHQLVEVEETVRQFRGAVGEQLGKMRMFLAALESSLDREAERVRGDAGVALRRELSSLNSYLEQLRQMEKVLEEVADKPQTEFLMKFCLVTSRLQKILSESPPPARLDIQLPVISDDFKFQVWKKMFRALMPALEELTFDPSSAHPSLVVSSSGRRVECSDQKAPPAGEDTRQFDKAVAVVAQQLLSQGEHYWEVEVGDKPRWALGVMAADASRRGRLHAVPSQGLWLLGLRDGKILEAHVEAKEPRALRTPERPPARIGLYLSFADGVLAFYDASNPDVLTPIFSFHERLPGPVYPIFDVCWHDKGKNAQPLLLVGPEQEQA",
  "assay": "cell-based or functional assay",
  "data": [
    {"binder": "caveolin-3 (recombinant, expressed from pcDNA-Cav-3) (other) MMAEEHTDLEAQIVKDIHCKEIDLVNRDPKNINEDIVKVDFEDVIAEPVGTYSFDGVWKVSYTTFTVSKYWCYRLLSTLLGVPLALLWGFLFACISFCHIWAVVPCIKSYLIEIQCISHIYSLCIRTFCNPLFAALGQVCSSIKVVLRKEV", "values": [
      {"measurement": "reduction in the appearance of filapodia-like structures (C2C12 myoblasts transfected with caveolin-3 and GFP-MG53 in a ratio of 10:1)", "result": 82, "unit": "%"}
    ]}
  ]
}
